Data published in US20150203579A1.
Where two headings read alike, the source gives them in different places.

Tests used:
[1] = molecular target: dimeric biotinylated human PD-1 protein with a C-terminal human Fc tag (human); assay: competition ELISA: 200 pM biot-hPD-1-hFc to coated hPD-L1-mFc; NBI
[2] = molecular target: recombinant human PD-1 dimer expressed with a C-terminal mouse IgG2a Fc tag (human); assay: competition ELISA: 1.5 nM hPD-1-mFc to coated hPD-L1-hFc; NBI
[3] = molecular target: recombinant human PD-1 dimer expressed with a C-terminal mouse IgG2a Fc tag (human); assay: competition ELISA: 100 pM hPD-1-mFc to coated hPD-L2-hFc; NBI
[4] = molecular target: full length human PD-1 on HEK293/hPD-1 cells (human) (UniProt Q15116); assay: FACS dose response, HEK293/hPD-1 cells; control
[5] = molecular target: PD-1 chimera: extracellular domain of human PD-1 with trans-membrane and cytoplasmic domains of human CD300a, on Jurkat/AP1-Luc cells (human) (UniProt Q9UGN4); assay: cell-based or functional assay
[6] = molecular target: full length human PD-1 on HEK293/hPD-1 cells (human) (UniProt Q15116); assay: FACS dose response, HEK293/hPD-1 cells; control; remark: listed apart in the source

Row | Substance | Max Geom. Mean MFI @ 100 nM [4] [MFI] | Max Geom. Mean MFI @ 100 nM [6] [MFI] | other results
1 | Isotype control 1 (antibody) |  |  | % blocking at 50 nM antibody [1]: 19%; % blocking at 200 nM antibody [2]: -3%
2 | Isotype control 2 (antibody) |  |  | % blocking at 100 nM antibody [3]: -27%
3 | hIgG4 isotype control (antibody) | 809 |  | Emax mean [%] @ 100 nM [5]: 98%
4 | mIgG1 isotype control (antibody) | 858 | 200 | 
5 | mIgG2a isotype control (antibody) | 352 | 239 | 
